The record followed here is patent publication US20050158323A1, “Methods of killing tumor cells by targeting internal antigens exposed on apoptotic tumor cells” (Vaccinex, Inc., priority 2003, published 2005).

Data set [1] in a line: Maximum Tolerated Dose of chemotherapy in xenograft models (Table 6). The following applies: mouse, in vivo, intravenous; nude mice; MTD confirmed by present inventors. An excerpt: Because of concerns regarding cumulative dose-limiting bone marrow toxicity when combining chemotherapy and radioimmunotherapy, it is necessary to determine the Maximum Tolerated Dose (MTD) of combination therapy and, where toxicity of the two therapeutic agents is additive, adopt strategies that will permit administration of both toxic agents. MTD is established by regulatory criteria related to the time required for platelet and white cell recovery in peripheral circulation. Such standards are familiar to those skilled in the art. In the case of murine models, an often employed surrogate definition of MTD is the maximum dose that results in an average of less than 20% weight loss or less than 10% mortality. Currently established MTD for the most common chemotherapeutic agents employed in standard clinical protocols or in animal models are shown in Tables 6 to 9, below.

The target in data set [2] is T1, C35 positive tumors and cell lines (Homo sapiens, UniProt Q9BRT3).
T1 construct: from tissue
T1 sequence (Q9BRT3 1-115): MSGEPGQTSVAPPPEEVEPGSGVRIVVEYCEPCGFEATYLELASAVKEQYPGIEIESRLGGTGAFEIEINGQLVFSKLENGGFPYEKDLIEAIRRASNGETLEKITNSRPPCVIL
Kind of data set: Immunohistochemistry of formalin fixed, paraffin embedded samples. It is filed as binding. How it is done: (§1) Hybridoma cell lines IF2.4.1 and 1B3.6.1, specific for C35 polypeptides, were prepared using hybridoma technology. (Kohler et al., Nature 256:495 (1975); Kohler et al., Eur. J. Immunol. 6:511 (1976); Kohler et al., Eur. J. Immunol. 6:292 (1976); Hammerling et al., in: Monoclonal Antibodies and T-Cell Hybridomas, Elsevier, N.Y., pp. 571-681 (1981)). Briefly, hybridoma cell lines were generated using standard PEG fusion to the non-secreting myeloma cell line NS-1 (P3/NS1/1-AG4-1, ATCC #TIB-18) of splenocytes from BALB/c mice immunized with syngeneic BCA34 fibroblast tumor cells transduced to overexpress C35. Following PEG fusion to NS-1, the hybridomas were grown in methylcellulose semi-solid media. Approximately 2 weeks later, hybridoma colonies were isolated into 96 well plates and individual supernatants were tested for reactivity with C35 by ELISA, Western blot, and immunohistochemistry. Positive hybridomas colonies were subcloned and screened for reactivity twice to ensure clonality. Antibodies were isolated from hybridoma supernatants by protein G affinity purification using standard methods. […] In addition, we have developed intracellular staining flow cytometry assays for quantitative analysis using antibodies from hybridoma cell line 1F2 conjugated to Alexa-647 flourochrome. Each of these antibodies is distinct, yet both are specific for C35 protein. […]

Data set [3] has as its target T2, C35 on surface membrane of breast tumor cells that express the C35 tumor antigen (Homo sapiens, UniProt Q9BRT3).
T2 construct: A line of continuously growing breast tumor cells that express the C35 tumor antigen; endogenous in cells
T2 sequence (Q9BRT3 1-115): T1 sequence (Q9BRT3 1-115)
Kind of data set: C35 surface staining of breast tumor cells after mitomycin C induced apoptosis (flow cytometry). The following applies: 50 ng Alexa 647 conjugated antibody. Format: cell-based. How it is done: (§2) A line of continuously growing breast tumor cells that express the C35 tumor antigen was either treated with 6 ug/ml mitomycin C or left untreated. After continued in vitro culture for 48 hours to allow apoptosis to develop, cells were harvested, washed and stained with 50 ng of 1F2 monoclonal anti-C35 antibody or a mouse IgG antibody control each conjugated to the fluorescent dye Alexa 647. Following 50 minutes incubation at 25C, cells were stained with Annexin V and propidium iodide (PI) using a standard commercial kit (Pharmingen). Cells were analyzed for staining with Annexin V, propidium iodide and Alexa 647 by flow cytometry employing standard protocols.

The target of data set [4] is T3, C35 on surface membrane of 21MT1 breast tumor cells (Homo sapiens, UniProt Q9BRT3).
T3 construct: 21MT1, derived from breast carcinoma, naturally expresses high levels of C35; endogenous in cells; host or cells: 21MT1 breast tumor cells
T3 sequence (Q9BRT3 1-115): T1 sequence (Q9BRT3 1-115)
Description: C35 surface staining of breast tumor cells after radiation induced apoptosis (flow cytometry). It is filed as cell-based. Particulars: 50 ng Alexa 647 conjugated antibody. How it is done: as §2, with “either irradiated” for “either treated”, “with 300 Gy” for “with 6 ug/ml mitomycin C”, “for several days” for “for 48 hours”
For orientation: In flow cytometry, cells or beads pass a laser one at a time.

The target in data set [5] is T4, C35 protein (Homo sapiens, UniProt Q9BRT3).
T4 sequence (Q9BRT3 1-115): T1 sequence (Q9BRT3 1-115)
Kind of data set: Competitive binding ELISA. The following applies: 1F2 versus 1B3. As for the experimental part:
as §1
In general terms: ELISA stands for enzyme-linked immunosorbent assay.

Data set [6] addresses T4, C35 protein. Description: ELISA and Western Blot of hybridoma antibodies. It is filed as binding. Particulars: ELISA and Western Blot assays. How it is done: as §1
Data set [7] has as its target T5, recombinant human C35 (rhC35) (Homo sapiens, UniProt Q9BRT3).
T5 construct: made in house; host or cells: E. coli
T5 sequence (Q9BRT3 1-52): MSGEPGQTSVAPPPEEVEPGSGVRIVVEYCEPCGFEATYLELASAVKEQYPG
Kind of data set: Epitope localization by Western blot of Lys-C digested rhC35. It is filed as binding. Particulars: Western blot, 1 μg/ml antibody. An excerpt: (§3) To localize the epitope specificity of 1B3 and 1F2 antibodies, recombinant human C35 (rhC35) synthesized with a 6× His tag in E. coli was digested with Lys-C endoproteinase. This enzyme cuts after lysine (K) residues in the protein sequence. […] The full sequence of rhC35, including the amino terminal 6× His tag addition is shown. Amino acid positions are numbered relative to the amino terminal methionine (M) of the native human sequence. Note that digestion at the first and third lysine followed by negatively charged residues is inefficient and some longer combination fragments may be generated. Lys-C endoproteinase was added to purified rhC35 at a […] weight ratio and incubated for 18 hours at 37° C. in 25 mM Tris, pH 8.0. The digest was ethanol precipitated and resolubilized in reducing Tricine sample buffer. After heating 5 minutes at 100° C., samples were separated by electrophoresis on a 16% Tricine gel (Invitrogen). Peptides were transferred to PVDF membranes and the blots depicted in FIG. 10 were either stained with Coomassie blue (lanes 1-3 of both left and right panels) to detect all peptides or processed with one of the following: 1 μg/ml of the murine 1F2 anti-C35 antibody followed by alkaline phosphatase conjugated goat anti-mouse antibody (lane 4 of left panel); 1 μg/ml of the 1B3 anti-C35 immunoglobulin variable regions linked to human constant regions (MAb11) followed by alkaline phosphatase conjugated goat anti-human antibody (lane 5 of left panel); or anti-6× His tag mouse antibody (Amersham) followed by alkaline phosphatase conjugated goat anti-mouse antibody (lane 4 and 5 of right panel). BCIP/NBT substrate was added and developed to detect the secondary reagents. Molecular weight markers are indicated in the flanking lanes of both panels.
(§4) In FIG. 10, the indicated band A migrates at the position of undigested rhC35. Note that band B stains with 1F2 but not MAb11 (1B3) anti-C35 antibody while band C stains with neither 1F2 nor MAb11 (1B3) antibody. Since bands B and C both do stain with anti-6× His tag antibody to the 6× His tag at the amino terminus of rhC35, it may be concluded that both fragments lack C-terminal peptide fragments. […] This epitope is not required for staining with 1F2.

The target in data set [8] is T6, recombinant human C35 (rhC35) (Homo sapiens, UniProt Q9BRT3).
T6 construct: made in house; host or cells: E. coli
T6 sequence (Q9BRT3 1-115): T1 sequence (Q9BRT3 1-115)
The description is as above. It is filed as binding. Particulars: native C35 sequence numbering; 1 μg/ml antibody.
Excerpt: as §3, §4

The target of data set [9] is T7, recombinant human C35 (rhC35) (Homo sapiens, UniProt Q9BRT3).
T7 construct: made in house; host or cells: E. coli
T7 sequence (Q9BRT3 1-104): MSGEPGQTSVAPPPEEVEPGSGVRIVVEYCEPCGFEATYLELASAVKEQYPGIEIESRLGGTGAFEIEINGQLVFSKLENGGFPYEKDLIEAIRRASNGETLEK
The description is as above. Format: binding. The following applies: Western blot, 1 μg/ml antibody.
Excerpt: as §3, §4
This is another data set of the same source. A general note: Immunoblotting shows a protein as a band on a membrane.

[10] abbreviates: untreated live cells (PI negative), Annexin V negative.

Consider `COc1cccc2c1C(=O)c1c(O)c3c(c(O)c1C2=O)C[C@@](O)(C(=O)CO)C[C@@H]3O[C@H]1C[C@H](N)[C@H](O)[C@H](C)O1` [Adriamycin, Doxorubicin], for which the MTD in data set [1] was found to be 10 mg/kg.

B1: 1F2: mouse monoclonal anti-C35 antibody from hybridoma 1F2, gamma1 isotype, kappa light chain; VH SEQ ID NO:4, VK SEQ ID NO:6 (antibody, listed as Mus sp., V domains shown)
VH: DVQLQESGPGLVKPSQSLSLTCSVTGYSITSGYFWNWIRQFPGNKLEWMGYISYDGSNNSNPSLKNRISFTRDTSKNQFFLKFNSVTTDDSAAYYCTRGTTGFAYWGQGTLVTVSA
VL: QIVLTQSPAIMSASPGEKVTISCSASSSVSYMNWYQQKPGSSPKPWIYHTSNLASGVPARFSGSGSGTSYSLTISSMEAEDAATYYCQQYHSYPPTFGGGTKLEIK
As for B1, the immunohistochemical staining result in data set [2] is “specifically stain formalin fixed, paraffin embedded C35 positive tumors and cell lines”. For the same molecule, the “differential staining versus isotype control antibody” value in data set [3] (6 ug/ml mitomycin C, 48 hours, viable (PI negative), undergoing apoptosis (Annexin V positive)) is “clearly differentially stained”; in [3] (setting [10]) it was “absence of differential staining”; in data set [4] (irradiated (300 Gy) tumor cells, viable (PI negative), undergoing apoptosis (Annexin V positive)), “clearly differentially stained”; in [4] (setting [10]), “absence of differential staining”. Besides, the “epitope comparison by competition” value in the data set with C35 protein [5] is on record as “bind different epitopes of the C35 protein”. Also, in the data set with C35 protein [6], the “binding to recombinant C35 protein” value is “specifically bind recombinant C35 protein”. Also, the “staining of approximately 8 kDa band C (in addition lacks residues 53-104)” value in data set [7] is given as “does not react”. Besides, the epitope specificity result in data set [8] was “residues 53-104”. Further, the “staining of approximately 15 kDa band B (lacks C35 residues 105-115)” value in [9] is given as “stains”.

For orientation: MTD means the largest dose that counted as tolerated.
